Test results as given in patent publication US12065505B2, “Antibodies and antigen binding peptides for factor XIa inhibitors and uses thereof” (Bristol-Myers Squibb Company, priority 2021, dated 2024).
Positions count from the first letter of the chain named.

B1: 24H1-GQTV-Fab-LONG: antibody Fab fragment; VH SEQ ID NO: 80, VL SEQ ID NO: 98; sequence in Table 3 (antibody, V domains shown)
VH: EVQLVESGGGLIQPGGSLRLSCAASGFTVSRNYMSWVRQAPGKGLEWVSFIYSGGSTYYADSVKGRFTISRDNSKNTLYLQMNSLRAEDTAVYYCARGGFGGGDYWGQGTLVTVSS
VL: DIQMTQSPSSVSASVGDRVTITCRASQGISSWLAWYQHKPGKAPKLLIYAASSLQSGVPSRFSGSGSGTDFTLTISSLQPEDFATYYCQQANSFPLTFGGGTKVEIK
B2: 26D5-75214-343-F06-Fab-SHORT: antibody Fab fragment; VH SEQ ID NO: 53, VL SEQ ID NO: 85; sequence in Table 3 (antibody, V domains shown)
VH: B1 VH with R31S, Y33A, S53P, S56R, G98A, G103P
VL: B1 VL with W32N, H38Q, S93E
B3: 26D5-75202-343-A09-Fab-SHORT: antibody Fab fragment; VH SEQ ID NO: 54, VL SEQ ID NO: 86; sequence in Table 3 (antibody, V domains shown)
VH: B1 VH with R31S, Y33A, F50Y, S53P, S56R, G98A
VL: B1 VL with S30Y, W32N, H38Q, S93E
B4: 26D5-295-C08-Fab-SHORT: antibody Fab fragment; VH SEQ ID NO: 62, VL SEQ ID NO: 88; sequence in Table 3 (antibody, V domains shown)
VH: B1 VH with T28Q, R31S, Y33A, S53P, S56R
VL: B1 VL with W32N, H38Q
B5: 26D5-295-B08-Fab-LONG: antibody Fab fragment; VH SEQ ID NO: 60, VL SEQ ID NO: 88; sequence in Table 3 (antibody, V domains shown)
VH: B1 VH with R31S, Y33A, S53P, S56R, G98A
VL: B1 VL with W32N, H38Q
B6: 26D5-75203-343-B09-Fab-SHORT: antibody Fab fragment; VH SEQ ID NO: 54, VL SEQ ID NO: 87; sequence in Table 3 (antibody, V domains shown)
VH: B1 VH with R31S, Y33A, F50Y, S53P, S56R, G98A
VL: B1 VL with W32N, H38Q, S53T, S93E
B7: 26D5-GVR-Q-FT-Fab-SHORT: antibody Fab fragment; VH SEQ ID NO: 81, VL SEQ ID NO: 99; sequence in Table 3 (antibody, V domains shown)
VH: B1 VH with S56R
VL: B1 VL with H38Q
B8: 26D5-75229-343-A10-Fab-SHORT: antibody Fab fragment; VH SEQ ID NO: 52, VL SEQ ID NO: 84; sequence in Table 3 (antibody, V domains shown)
VH: B1 VH with R31S, Y33A, F50Y, S53P, S56R, G98A, G103P
VL: B1 VL with W32N, H38Q, S93Q
B9: 26D5-75768-348-A10-Fab-SHORT: antibody Fab fragment; VH SEQ ID NO: 56, VL SEQ ID NO: 89; sequence in Table 3 (antibody, V domains shown)
VH: B1 VH with R31S, Y33A, M34V, W36I, S49A, F50Y, S53P, S56R, A96T, R97I
VL: B1 VL with W32N, L33N, A34Q, H38Q, A50Y, A91G, S93E
B10: 26D5-295-C08-Fab-LONG: antibody Fab fragment; VH SEQ ID NO: 62, VL SEQ ID NO: 88; sequence in Table 3 (antibody, V domains shown)
VH: B1 VH with T28Q, R31S, Y33A, S53P, S56R
VL: B1 VL with W32N, H38Q
B11: 26D5-GVR-Q-FT-Fab-LONG: antibody Fab fragment; VH SEQ ID NO: 81, VL SEQ ID NO: 99; sequence in Table 3 (antibody, V domains shown)
VH: B1 VH with S56R
VL: B1 VL with H38Q
B12: 26D5-GVR-H-Fab-LONG: antibody Fab fragment; VH SEQ ID NO: 81, VL SEQ ID NO: 98; sequence in Table 3 (antibody, V domains shown)
VH: B1 VH with S56R
VL: B1 VL
B13: 9C8-VGSKE-Fab-LONG: antibody Fab fragment; VH SEQ ID NO: 78, VL SEQ ID NO: 96; sequence in Table 3 (antibody, V domains shown)
VH: QVQLQESGPGLVKPSETLSLTCAVSGYSISSGYYWGWIRQPPGKGLEWIGSIYHSGNTYYSPSLQSRVTISVDTSKNQFSLKLSSVTAADTAVYYCARGGDFDILTGYYKGWFEPWGQGTLVTVSS
VL: AIQLTQSPSSLSASVGDRVTITCRASQGISSALAWYQQKPGKAPKLLIYDASSLESGVPSRFSGSGSGTDFTLTISSLQPEDFATYYCQQFNSYPQTFGQGTKVEIK

Experiments:
[1] = SPR (Biacore) on chip coated with BSA conjugated to COMPOUND 2; type: binding; details: Fab over COMPOUND 2-BSA surface; for Ka / koff, dissociation rate constant: apparent; for Kd: apparent affinity
Protocol: The binding of the first round affinity matured antibody Fab fragments to conjugated versions of Compound A was examined by SPR (Biacore™) using a CM5 S-series sensor chip (Cytiva, Cat. No. 29149603) coated with BSA previously conjugated to COMPOUND 2, COMPOUND 3 or COMPOUND 1. The immobilization level was 150-250 RUs. The running buffer was 1×PBS (phosphate buffered saline, pH 7.4) with 0.05% Tween 20. […] The antibody Fab fragment at a concentration of between 200-0.8 nM was injected over the BSA-compound coated surface for 2 minutes at a flow rate of 30 uL/min. The antibody Fab fragment was then allowed to dissociate for 15 minutes. The chip surface was regenerated after each cycle with a 1 minute pulse of 10 mM Glycine, pH 2, and a 1 minute pulse of 50 mM NaOH. All experiments were run on the same equipment and analyzed with the same software as described before. Apparent affinities were determined for rank ordering only since dissociation rates were too slow to be measured by Biacore. Comparative experiments with selected mAbs were also conducted in a similar fashion (see FIG. 11).

[2] = Thermal stability by Differential Scanning Calorimetry; type: physicochemical; details: DSC; Fab 1 mg/ml
Protocol: Thermal stability analysis was performed with UNchained Labs UNcle™/Tagg analysis with Fabs at a concentration of 20 uM with or without Compound A at a concentration of 50 uM (or control compound). Capillaries were scanned from 25 to 90° C. at 0.5° C./min. In addition, select Fabs were also analyzed by Differential Scanning calorimetry analysis using the Malvern MicroCal VP-Capillary DSC. Samples were buffer matched and loaded with Fabs at a concentration of 10 uM with or without Compound A at a concentration of 15 uM (or control compound). Scan temperature range was 15-110° C. at a rate of 60° C./Hr (Filter period: 16 sec, Gain: None). Sample analysis was using software provided by the manufacturer for both the UNcle and the Malvern Capillary DSC. FIG. 15 and Table 14 below show representative DSC results.

[3] = Kinetic Exclusion Assay (KinExA) solution affinity; type: binding; details: for KinExA Ka: complex association rate, 200 pM Fab and 400 pM Compound A; for Kd: solution affinity for Compound A, Fab 100, 200, 300 pM, equilibrated 24-72 hours
Protocol: The solution affinity of the antibody Fab fragments disclosed herein for Compound A was measured using a Kinetic Exclusion Assay (KinExA). […] The relative unbound concentration of 26D5 affinity matured antibody Fab fragment was measured by capture on a streptavidin coated bead with COMPOUND 5 followed by detection with a fluorescently labeled antibody that recognizes the human IgG Fab. Kinetic analysis to determine the complex association rate was measured with the same assay format except that a single tube of the mixture was prepared (200 pM Fab and 400 pM Compound A) and time points were removed immediately (no equilibration). Two Fabs, 26D5-75229-343-A10-Fab-SHORT and 26D5-75616-348-F10-Fab-SHORT, were identified as the top two Fabs by DSC thermal stability and KinExA analysis. Antibody Fab fragment 26D5-75616-348-F10-Fab-SHORT (SEQ ID NO: 106 and SEQ ID NO: 164; see Table 3) was selected for X-ray crystallography as described below and in vivo studies as described in Example 12.

Molecule	Ka ([1]; 37° C.)	koff, dissociation rate constant ([1]; 37° C.)	Kd ([1]; 37° C.)	Tm1 (° C.) [2]	KinExA Ka [3]	other results
B1	790000 M⁻¹ s⁻¹	0.001 s⁻¹	1.3 nM	–	–	–
B2	–	–	–	75.5 °C	600000 M⁻¹ s⁻¹	Kd [3]: 0.015 nM
B3	–	–	–	75.3 °C	150000 M⁻¹ s⁻¹	Kd [3]: 0.019 nM
B4	–	–	–	75.3 °C	–	–
B5	280000 M⁻¹ s⁻¹	0.00022 s⁻¹	0.8 nM	–	–	–
B6	–	–	–	76.6 °C	14000 M⁻¹ s⁻¹	Kd [3]: 0.01 nM
B7	1.6e+06 M⁻¹ s⁻¹	0.0013 s⁻¹	0.9 nM	–	–	–
B8	–	–	–	74.9 °C	50000 M⁻¹ s⁻¹	–
B9	–	–	–	66.3 °C	–	Tm2 (° C.) [2]: 74.1 °C
B10	280000 M⁻¹ s⁻¹	8.5e-05 s⁻¹	0.3 nM	–	–	–
B11	1.3e+06 M⁻¹ s⁻¹	0.0016 s⁻¹	1.3 nM	–	–	–
B12	280000 M⁻¹ s⁻¹	0.001 s⁻¹	3.5 nM	–	–	–
B13	–	–	–	–	–	Ka ([1]; 25° C.): 400000 M⁻¹ s⁻¹; koff, dissociation rate constant ([1]; 25° C.): 0.00087 s⁻¹; Kd ([1]; 25° C.): 2.1 nM
